From US20220372138A1 (IOMX THERAPEUTICS, published 2022)
Where two headings read alike, the source gives them in different places.

Legend:
[1] = biological target: T1, full-length ECD of human IGSF11 fused to murine Fc (human, UniProt Q5DX21 23-241); assay: IgG ELISA
T1 construct: also called Fc-fusion IGSF11 ECD; not shown: murine Fc
T1 sequence: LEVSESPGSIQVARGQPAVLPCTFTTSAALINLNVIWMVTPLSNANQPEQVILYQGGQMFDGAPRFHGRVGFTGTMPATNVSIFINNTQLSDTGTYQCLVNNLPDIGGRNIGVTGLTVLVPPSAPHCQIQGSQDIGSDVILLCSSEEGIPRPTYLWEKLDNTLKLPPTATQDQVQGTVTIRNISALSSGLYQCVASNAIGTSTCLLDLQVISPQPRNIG

[2] = biological target: T2, IgC2 domain of human IGSF11 fused to murine IgG2a Fc (human, UniProt Q5DX21 137-241); assay: IgG ELISA
T2 construct: not shown: murine IgG2a Fc-region
T2 sequence: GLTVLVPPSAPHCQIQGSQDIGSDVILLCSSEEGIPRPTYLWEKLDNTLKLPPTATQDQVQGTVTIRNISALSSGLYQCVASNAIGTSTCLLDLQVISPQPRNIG

[3] = biological target: T3, human IGSF11 (VSIG3) expressed on cells (human, UniProt Q5DX21 23-431); assay: IgG1 FACS HEK-OE
T3 sequence: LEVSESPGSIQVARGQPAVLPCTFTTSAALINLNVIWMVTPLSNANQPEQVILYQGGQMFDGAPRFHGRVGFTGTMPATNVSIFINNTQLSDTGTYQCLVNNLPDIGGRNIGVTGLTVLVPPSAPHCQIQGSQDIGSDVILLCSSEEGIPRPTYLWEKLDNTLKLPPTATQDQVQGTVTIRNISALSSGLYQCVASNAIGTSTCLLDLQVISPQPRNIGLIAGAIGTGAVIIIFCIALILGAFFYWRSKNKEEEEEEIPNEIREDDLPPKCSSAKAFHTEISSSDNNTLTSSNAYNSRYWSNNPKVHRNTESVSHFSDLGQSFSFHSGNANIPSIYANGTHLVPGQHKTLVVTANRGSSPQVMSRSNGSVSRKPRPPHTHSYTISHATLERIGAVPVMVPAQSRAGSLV

[4] = biological target: T4, human IGSF11 (VSIG3) ECD, His-tagged (human, UniProt Q5DX21 23-241); assay: IgG1 ELISA EC50 0.02-0.05 nM
T4 construct: in part bought (SinoBiological 13094-H08H); also called HIS-IGSF11; IGSF11-HIS; not shown: His tag
T4 sequence: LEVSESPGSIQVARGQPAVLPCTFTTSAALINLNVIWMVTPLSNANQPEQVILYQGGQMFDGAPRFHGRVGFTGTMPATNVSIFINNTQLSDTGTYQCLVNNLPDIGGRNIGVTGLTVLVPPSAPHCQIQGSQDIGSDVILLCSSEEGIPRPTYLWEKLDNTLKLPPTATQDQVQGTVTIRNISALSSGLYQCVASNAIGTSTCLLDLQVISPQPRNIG

[5] = biological target: T3, human IGSF11 (VSIG3) expressed on cells; assay: FACS, DMS 273 cells with scrambled control siRNA (SC)
[6] = biological target: T3, human IGSF11 (VSIG3) expressed on cells; assay: FACS, M579-A2-luc cells with scrambled control siRNA (SC)
[7] = biological target: T3, human IGSF11 (VSIG3) expressed on cells; assay: FACS, DMS 273 cells with IGSF11 siRNA (KD, knock-down control)
[8] = biological target: T3, human IGSF11 (VSIG3) expressed on cells; assay: FACS, M579-A2-luc cells with IGSF11 siRNA (KD, knock-down control)
[9] = biological target: T4, human IGSF11 (VSIG3) ECD, His-tagged; assay: ELISA: IGSF11-HIS coated, IgG1 dilution series, anti-human antibody-HRP, TMB
[10] = biological target: T4, human IGSF11 (VSIG3) ECD, His-tagged; assay: blocking ELISA: VSIR-Fc immobilised, IgG dilution series pre-incubated with 200 nM IGSF11 ECD-His, bound IGSF11 detected with anti-His-HRP
[11] = biological target: T3, human IGSF11 (VSIG3) expressed on cells; assay: IgG1 FACS DMS 273
[12] = biological target: T4, human IGSF11 (VSIG3) ECD, His-tagged; assay: IgG1 ELISA EC50 <0.02 nM
[13] = biological target: T5, extracellular domain (ECD) of human IGSF11 (VSIG3), recombinant (human, UniProt Q5DX21 23-241); assay: Fab ELISA
T5 construct: biotinylated where captured on streptavidin; tags of the reagent not always stated; also called IGSF11 (ECD domain); ECD-IGSF11
T5 sequence: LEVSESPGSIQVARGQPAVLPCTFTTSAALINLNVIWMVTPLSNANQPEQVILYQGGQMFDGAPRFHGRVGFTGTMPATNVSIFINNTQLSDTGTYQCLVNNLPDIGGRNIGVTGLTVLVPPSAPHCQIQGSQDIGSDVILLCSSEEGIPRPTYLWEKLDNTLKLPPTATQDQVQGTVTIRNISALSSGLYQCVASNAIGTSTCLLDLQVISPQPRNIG
Procedure: (§1) In order to identify IGSF11-specific binding ABPs, monoclonal Fabs expressed from E. coli were generated from the enriched set of anti-IGFS11 antibody-expressing phage. After bacterial lysis, the Fabs were tested for their binding properties and cross-reactivity profile on recombinant ECD-IGSF11 (human, mouse and cynomolgus monkey) by standard ELISA. Briefly, biotinylated recombinant ECD-IGSF11 from human, mouse, or cynomolgus monkey were immobilized at 2 ug/mL on a streptavidin-coated 384-well Maxisorp plate. The surface was blocked with 2% (w/v) skim milk powder in PBST. After three wash cycles with PBST, a bacterial lysate of each of the anti-IGSF11 Fabs in 2% (w/v) skim milk powder was applied to the immobilized IGSF11 and incubated for 1 h. After removing all unbound Fab by 3 wash cycles with PBST, bound Fab antibodies were detected with a goat anti-human Fab antibody conjugated with horseradish peroxidase. After three wash cycles with PBST the ELISA was developed with TMB substrate.

[14] = biological target: Streptavidin (UniProt P22629 37-163, limits assumed); assay: Fab ELISA
Procedure: as §1

[15] = biological target: T6, ECD of cynomolgus monkey IGSF11, recombinant biotinylated (cynomolgus monkey, UniProt Q5DX21 23-241 (human entry)); assay: Fab ELISA
T6 construct: whole entry named
T6 chain: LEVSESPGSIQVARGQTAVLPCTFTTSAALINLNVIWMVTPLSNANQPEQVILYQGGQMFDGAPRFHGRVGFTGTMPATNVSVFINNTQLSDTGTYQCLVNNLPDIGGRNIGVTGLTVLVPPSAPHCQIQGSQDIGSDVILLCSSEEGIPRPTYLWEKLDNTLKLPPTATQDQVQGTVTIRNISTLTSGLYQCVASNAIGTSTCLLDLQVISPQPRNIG
Procedure: as §1

[16] = biological target: T1, full-length ECD of human IGSF11 fused …; assay: IgG ELISA; remark: listed apart in the source
Procedure: Binding of IgG antibodies to each of the full-length ECD of IGSF11, to the IgV domain of IGSF11 and to the IgC2 domain of IGSF11, was tested in the ELISA assay as follows: briefly, recombinant domains of Fc-fusion IGSF11 proteins were coated at 2 ug/mL on a 384-well Maxisorp plate. The surface was blocked with 2% (w/v) skim milk powder in PBST. […] After removing all unbound antibodies by 3 wash cycles with PBST, bound IgG ABPs were detected with a goat anti-human IgG antibody conjugated with horseradish peroxidase. After three wash cycles with PBST the ELISA was developed with TMB substrate.

[17] = biological target: T7, IgV domain of human IGSF11 fused to murine IgG2a Fc (human, UniProt Q5DX21 23-143); assay: IgG ELISA;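 further: ELISA binding of IgG antibodies to plate-coated IGSF11 Fc-fusion proteins (full-length ECD, IgV or IgC2 domain), detected via HRP-labelled anti-human IgG with TMB development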
T7 construct: not shown: murine IgG2a Fc-region
T7 sequence: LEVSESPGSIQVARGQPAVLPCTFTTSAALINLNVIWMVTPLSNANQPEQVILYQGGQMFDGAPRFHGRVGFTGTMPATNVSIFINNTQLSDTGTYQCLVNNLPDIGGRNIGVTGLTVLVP

[18] = biological target: T8, murine IGSF11 expressed on cells (mouse, UniProt P0C673 23-428); assay: IgG FACS CT26-IGSF11
T8 construct: MC38-IGSF11, CT26-IGSF11, MC38-wt (naturally expresses murine IGSF11)
T8 sequence: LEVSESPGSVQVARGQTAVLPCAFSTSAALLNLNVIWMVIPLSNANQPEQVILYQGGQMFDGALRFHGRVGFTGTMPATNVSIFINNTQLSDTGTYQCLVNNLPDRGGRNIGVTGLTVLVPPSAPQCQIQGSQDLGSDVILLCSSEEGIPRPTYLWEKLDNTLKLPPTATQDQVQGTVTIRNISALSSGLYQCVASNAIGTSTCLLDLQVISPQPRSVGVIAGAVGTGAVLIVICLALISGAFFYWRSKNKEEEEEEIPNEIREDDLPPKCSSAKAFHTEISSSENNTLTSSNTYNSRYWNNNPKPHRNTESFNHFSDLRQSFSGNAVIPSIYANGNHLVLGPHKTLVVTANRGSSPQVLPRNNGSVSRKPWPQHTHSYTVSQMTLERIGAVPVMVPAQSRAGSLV
Source text: (§2) Unbound antibodies were removed by washing the cells three time with FACS buffer. Bound antibodies were detected with a mouse anti-human IgG antibody conjugated with AlexaFluor647.

[19] = biological target: T8, murine IGSF11 expressed on cells; assay: IgG FACS MC38-IGSF11
Source text: as §2

[20] = biological target: T3, human IGSF11 (VSIG3) expressed on cells; assay: IgG FACS MDA-MB-231-IGSF11
Source text: as §2

Sequence of Streptavidin (P22629 37-163 limits assumed): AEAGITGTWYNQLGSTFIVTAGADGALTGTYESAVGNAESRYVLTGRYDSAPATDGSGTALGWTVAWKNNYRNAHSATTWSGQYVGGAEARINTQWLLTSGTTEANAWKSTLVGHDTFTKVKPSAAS

B1: A-035 (IgG1 format) (antibody, V domains shown)
VH: QVQLVQSGAEVKKPGASVKVSCKASGYTFTGYYMHWVRQAPGQGLEWMGWINPNSGNTGYAQKFQGRVTMTRNTSISTAYMELSSLRSEDTAVYYCARGRLERGYWYFDLWGRGTLVTVSS
VL: NFMLTQPHSVSESPGRTVTISCTRSSGSITSNYVQWYQQRPGSAPTILIYEDKERPSEVPDRFSGSIDISSNSASLTISGLKTEDEADYYCQSYGGTSQGVLFGGGTKVTVL
notes: human IgG1 format
- EC50 [1]: 1 to 20 nM
- EC50 [2]: 20 to 100 nM
- EC50 [3]: > 50 nM
- EC50 [4]: 0.02 to 0.05 nM

B2: A-027 (IgG1 format) (antibody, V domains shown)
VH: QVQLVQSGAEVKKPGSSVKVSCKASGGTFSSYAISWVRQAPGQGLEWMGGIIPIFGTANYAQKFQGRVTITADKSTSTAYMELSSLRSEDTAVYYCARARGSTWGYFDYWGQGTLVTVSS
VL: EIVLTQSPASLSLSPGERVTLSCRASQSVSNYLAWYQQKPGQAPRLLIYDASNRATGIPARFSGSGSGTDFTLTISSLEPEDFAVYYCQQRDNWPLTFGGGTKVEIK
notes: human IgG1 format
- EC50 [1]: 1 to 20 nM
- EC50 [2]: 1 to 20 nM
- EC50 [3]: > 50 nM
- % binding (FACS heat-map) [5]: 14.3%
- % binding (FACS heat-map) [6]: 3.32%
- % binding (FACS heat-map) [7]: 2.63%
- % binding (FACS heat-map) [8]: 2.5%

B3: B-004 (chain-swapped IgG1) (antibody, V domains shown)
VH: EVQLLESGGGLIQPGGSLRLSCAVSGFTVSSNYMSWVRQAPGKGLEWVSVIYSGGSTYYADSVKGRFTISRDNSKNTLYLQMNSLRAEDTAVYYCARGNPYYYGDLQVNFDYWGQGTLVTVSS
VL: QAVVTQEPSLTVSPGGTVTLTCASSTGAVTSGYYPNWFQQKPGQAPRPLIYSTSNKHSWTPARFSGSLLGGKAALTLSGVQPDDEAEYYCLLYYGGDWVFGGGTKLTVL
notes: human IgG1 format; also called B4
- EC50 (read off the curve) [9]: ~0.02 nM
- IC50 (read off the curve) [10]: ~5 nM

B4: B-006 (chain-swapped IgG1) (antibody, V domains shown)
VH: EVQLVESGGGLIQPGGSLRLSCAASGFTVSSNYMSWVRQAPGKGLEWVSVIYSGGSTYYADSVKGRFTISRDNSKNTLYLQMNSLRAEDTAVYYCARGNPYYYGDLQVNFDYWGQGTLVTVSS
VL: QAVVTQEPSLTVSPGETVTLTCASSTGAVTSGYYPNWFQQRPGQAPRALIYSTSNKDSWTPARFSGSLLGGKAALTLSGVQPEDEAEYYCLLYYGGAWVFGGGTKLTVL
notes: human IgG1 format; also called B6
- EC50 (read off the curve) [9]: ~0.02 nM
- IC50 (read off the curve) [10]: ~5 nM

B5: B-007 (chain-swapped IgG1) (antibody, V domains shown)
VH: EVQLVESGGGLIQPGGSLRLSCAASGFTVSSNYMSWVRQAPGKGLEWVSVIYSGGSTYYADSVKGRFTISRDNSKNTLYLQMNSLRAEDTAVYYCARGNPYYYGDLQVNFDYWGQGTLVTVSS
VL: QAVVTQEPSLTVSPGGTVTLTCASSTGAVTSAYYPNWFQQKPGQAPRALIYSTSNKHSWTPARFSGSLLGGKAALTLSGVQPEDEADYYCLLYYGGAWVFGGGTKLTVL
notes: human IgG1 format; also called B7
- EC50 (read off the curve) [9]: ~0.01 nM
- IC50 (read off the curve) [10]: ~3 nM

B6: B-008 (chain-swapped IgG1) (antibody, V domains shown)
VH: EVQLVESGGGLIQPGGSLRLSCAASGFTVSSNYMSWVRQAPGKGLEWVSVIYSGGSTYYADSVKGRFTISRDNSKNTLYLQMNSLRAEDTAVYYCARGNPYYYGDLQVNFDYWGQGTLVTVSS
VL: QAVVTQEPSLTVSPGGTVTPTCGSSTGAVTSGNLPNWFQQKPGQAPRALIYSTSNKHSWTPARISGSLLGGKAALTLSGVQPEDEAEYYCLLYYGGAWVFGGGTKLTVL
notes: human IgG1 format; also called B8
- IC50 (read off the curve) [10]: ~4 nM

B7: A-022 (IgG1 format) (antibody, V domains shown)
VH: EVQLLESGPGLVKPSQTLSLTCTVSGGSISSGGYYWSWIRQHPGKGLEWIGYIYYSGSTYYNPSLKSRVTISVDTSKNQFSLKLSSVTAADTAVYYCARASRSTDYYFDYWGQGTLVTVSS
VL: QPGLTQPPSMSYGLGQTATLTCTGNRNNIGDQGAAWLQQHQGHPPKLLSYRNNNGPSGISERLSASRSGNTASLTISGLQPEDEADYYCSAWDSSLRAWVFGGGTKLTVL
notes: human IgG1 format
- EC50 [1]: < 1 nM
- EC50 [2]: < 1 nM
- EC50 [3]: 10 to 50 nM
- EC50 [11]: 10 to 50 nM
- EC50 [12]: < 0.02 nM

B8: C-013 (Fab format) (Fab, V domains shown)
VH: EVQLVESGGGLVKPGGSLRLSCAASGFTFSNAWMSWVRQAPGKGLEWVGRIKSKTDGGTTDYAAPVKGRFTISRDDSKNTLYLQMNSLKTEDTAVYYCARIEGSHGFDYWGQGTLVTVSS
VL: SYELTQPPSVSVSPGQTASITCSGDKLGDKYASWYQQKPGQSPVLVIYQDSKRPSGIPERFSGSNSGNTATLTISGTQAEDEADYYCASYLHTPKQFVFGGGTKLTVL
notes: Fab from E. coli lysate
- A450 [13]: < 1
- A450 [14]: < 0.1

B9: C-027 (Fab format) (Fab, V domains shown)
VH: QVQLVQSGAEVKKPGSSVKVSCKASGGTFSSYAISWVRQAPGQGLEWMGGIIPIFGTANYAQKFQGRVTITADESTSTAYMELSSLRSEDTAVYYCARENIPSYYDSSGRQDAFDIWGQGTMVTVSS
VL: SYELTQPPSVSVSPGQTASITCSGDKLGDKYASWYQQKPGQSPVLVIYQDSKRPSGIPERFSGSNSGNTATLTISGTQAEDEADYYCQSYLHKSHGAVFGGGTKLTVL
notes: Fab from E. coli lysate
- A450 [13]: < 1
- A450 [15]: < 1
- A450 [14]: < 0.1

B10: C-017 (IgG1 format) (antibody, V domains shown)
VH: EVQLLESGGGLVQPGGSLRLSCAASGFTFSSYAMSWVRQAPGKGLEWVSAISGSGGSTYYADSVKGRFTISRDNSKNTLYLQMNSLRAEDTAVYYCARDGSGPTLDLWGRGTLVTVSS
VL: DIQMTQSPSSLSASVGDRVTITCRASQSISSYLNWYQQKPGKAPKLLIYAASSLQSGVPSRFSGSGSGTDFTLTISSLQPEDFATYYCQQHRYIPPWTFGQGTKVEIK
- EC50 [16]: 1 to 20 nM
- EC50 [17]: 1 to 20 nM
- EC50 [18]: 20 to 50 nM
- EC50 [19]: 50 to 100 nM
- EC50 [20]: 15 to 25 nM
